According to article PMC3861120, “A Domesticated PiggyBac Transposase Interacts with Heterochromatin and Catalyzes Reproducible DNA Elimination in Tetrahymena” (PLoS Genetics, 2013):
Where no end group is shown, it is not given here. [ ]: non-standard residue; d: D form. Lys(Me3) = C[N+](C)(C)CCCC[C@H](N)C(=O)O; PEG = not defined here

T1: MBP-tagged cysteine-rich domain (566 aa-657 aa) of Tpb2p, MBP-Tpb2p-CRD (WT) (Tetrahymena thermophila, UniProt D2Z1K6 566-657)
T1 construct: Tpb2p (Tetrahymena piggyBac-like transposase 2), cysteine-rich domain, aa 566-657; amplified from a codon-optimized TPB2 coding region in pMAL-TPB2; Cloned in pMalC2X, which is expected to put MBP at the N-terminus (surmise); also called cysteine-rich domain of Tpb2p; source: E. coli BL21(DE3), purified (Amylose resin, maltose elution, dialysis)
T1 sequence (looked up): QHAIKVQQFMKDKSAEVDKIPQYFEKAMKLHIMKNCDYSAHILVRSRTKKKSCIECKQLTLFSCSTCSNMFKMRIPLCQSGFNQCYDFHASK

B1: Tetrahymena histone H3 peptide, amino acids 16-35, unmodified, C-terminally biotinylated (peptide, UniProt P69150 17-36, looked up)
peptide: PRKQLASKAARKSAPATGGI-{PEG-biotin}
modifications: reading uncertain
notes: histone H3, Tetrahymena, amino acids 16-35; also called unmodified peptide (16-35); source: synthetic peptide
B2: Tetrahymena histone H3 peptide, amino acids 1-19, unmodified, C-terminally biotinylated (peptide, UniProt P69150 2-20, looked up)
peptide: ARTKQTARKSTGAKAPRKQ-{PEG-biotin}
modifications: reading uncertain
notes: histone H3, Tetrahymena, amino acids 1-19; also called unmodified peptide (1-19); source: synthetic peptide
B3: Tetrahymena histone H3 peptide, amino acids 1-19, tri-methylated at lysine 4, C-terminally biotinylated (peptide, UniProt P69150 2-20, looked up)
peptide: ART[Lys(Me3)]QTARKSTGAKAPRKQ-{PEG-biotin}
modifications: reading uncertain
notes: histone H3, Tetrahymena, amino acids 1-19; That the K4me3 peptide is the 1-19 peptide follows from the position of the residue; also called H3K4me3 peptide; source: synthetic peptide
B4: Tetrahymena histone H3 peptide, amino acids 16-35, tri-methylated at lysine 27, C-terminally biotinylated (peptide, UniProt P69150 17-36, looked up)
peptide: PRKQLASKAAR[Lys(Me3)]SAPATGGI-{PEG-biotin}
modifications: reading uncertain
notes: histone H3, Tetrahymena, amino acids 16-35; also called H3K27me3 peptide; source: synthetic peptide
B5: Tetrahymena histone H3 peptide, amino acids 1-19, tri-methylated at lysine 9, C-terminally biotinylated (peptide, UniProt P69150 2-20, looked up)
peptide: ARTKQTARKSTGAKAPRKQ
modifications: tri-methylated lysine 9; biotin at the C-terminus with a PEG linker
notes: histone H3, Tetrahymena, amino acids 1-19; also called H3K9me3 peptide; source: synthetic peptide

Biological target: T1, MBP-tagged cysteine-rich domain (566 …)
Experiment: pull-down; biotin-tagged histone peptides (1 ug) immobilised on streptavidin Dynabeads, 1 ug MBP-Tpb2p-CRD added, overnight at 4°C; 10 mM Tris pH 7.5, 0.1 mM ZnSO4, 0.05% NP40, 250 mM NaCl; western blot with anti-MBP
Details: both partners purified

| Binder | binding result |
| --- | --- |
| B1 | binds |
| B2 | binds |
| B3 | binds |
| B4 | binds |
| B5 | binds |
